Values joined by “and” are separate entries in the source; they are usually repeats but may differ in a detail not shown here. Equal values may be shown once.

Experimental findings from patent US20110229478A1, “ERBB3 BASED METHODS AND COMPOSITIONS FOR TREATING NEOPLASMS” (ZENSUN (SHANGHAI) SCIENCE & TECHNOLOGY LIMITED, priority 2002, published 2011) are described below.

For test [1], the system named is transplanted tumour from spontaneous tumour of neu protein over-expressed FVB/N transgenic mice. As to the kind of experiment: Therapeutic effect of various dosage of DE3-1 in transplanted tumour model (Table 3). Format: in vivo. From the text: (§1) Transplanted tumour model, after immunohistological screening test, about 1000 mm^3 tumour mass was cut down from spontaneous tumour of neu protein over-expressed FVB/N transgenic mice. The tumour mass was abraded into single cells with nylon net, the amount injected under the breast of each FVB/N transgenic mice was 5×10^6 cells.
(§2) Preparing animal and transplanted animal tumor model: The same as (Experiment on therapeutic effect of B3 and DE3-1 rhErbB3-f12 and rhErbB3-f78 vaccine on immune therapy against tumor). No treatment was given to the control group, histag protein was injected to the negative control group, and Adriamycin (Santou MingZhi Pharmaceuticals) was administered for the positive control group, 5 μg, 20 μg and 80 μg was given to DE3-1 group respectively.
One day after the inoculation, Adriamycin 2.2 mg/kg was injected abdominally for consecutive 7 days in mice of the positive control group; histag protein+Al(OH)^3 was injected abdominally for mice of the negative control group; In DE3-1 group, the vaccine was absorbed on 0.1 mg of Al(OH)^3 and multi-points subcutaneous injection every 2 weeks for a total of 3 injections were carried out in mice. The experiment completed in 14 days after the third injection. Tumor development was monitored weekly, tumor size was measured with vernier and the size was expressed as (length diameter×short diameter 2/2), curve of tumor growth was protracted and analyzed statistically.
(§3) Tumor weight was measured after completion of the experiment and tumor-inhibitory rate was calculated, tumor inhibitory rate=[(tumor weight of control group−tumor weight of experiment groups)/tumor weight of control group]×100.

For test [2] the test system is unchanged. As to the kind of experiment: Anti-tumor effect of rhErbB3-f78 (Table 5). Format: in vivo.
From the text: as §1
(§4) Experiment on the therapeutic effect of various dosage of DE3-1 rhErbB3412 and rhErbB3-f78 on immune therapy against tumor.
as §2, §3

Test [3] shares this test system. The experiment in a line: Anti-tumor effect of rhErbB3-f12 (Table 4). Format: in vivo.
From the text: as §1, §4, §2, §3

For test [4], the system named is tumor development in FVB/N transgenic mice (neu protein over-expression, spontaneous breast cancer). As to the kind of experiment: Preventive effect of B3, DE3-1 on tumor development. Format: in vivo. The conditions noted are these: for Incidence of tumor growth / Time of tumor occurrence: injected abdominally every 20 days, 7 injections, 40 mice; for Tumor-inhibitory effect against the development of tumor, incidence versus negative control group: ×2 testing versus BSA + CFA control. The method, then: 8-10 weeks old FVB/N transgenic mice (bought from Jackson Lab USA) was selected as experiment animals, the mice were divided into 5 groups with 40 mice each, they were control group, B2, B3 and DE3-1 group; BSA, B2, SD32, B3, DE3-1 was mixed with Freud's adjuvant (CFA, complete Freud's adjuvant, bought from Sigma company) and injected abdominally every 20 days for 7 injections respectively to various groups. The dosage of BSA, B2, SD32, B3 and DE3-1 vaccine was 10, 5, 10, 1 and 10 μg/mouse/injection. Weekly monitor tumour development. The tumour development was verified and analysed statistically.
Objective of the present experiment is to explore whether there is preventive effect of B3 or DE3-1 vaccine on tumor development. The reason to choose this type of transgenic mice as experiment animal model, is because rat wild type neu cDNA controlled by mice breast virus promotor was transferred into the body of mice and produce over-expression of neu protein and spontaneous breast cancer occurred within 5-8 months in half of the mice. Natural course of tumor in the transgenic mice and its pathologic pattern is similar to that of human breast cancer. Therefore, it may have better therapeutic effect when used clinically. The sample contains 40 animals in each group, the aim of selecting such large sample is to ensure the number of cases which have the disorders will be greater than 10 animals, thus will be of greater implication statistically. The selection of dosage is based on the results of pre-experiments.

Test [5] concerns transplanted tumour from spontaneous tumour of neu protein over-expressed FVB/N transgenic mice. As to the kind of experiment: Therapeutic effect of B3 vaccine in transplanted tumour model (Table 2). Format: in vivo. The method, then: as §1
Nothing was administrated in the control group; 24 hours after the inoculation, SD32 and B3 vaccine injection started in SD32 and B3 experiment groups, the aforementioned vaccines were absorbed on 0.1 mg/ml of Al(OH)3 respectively, and injected multi-pointedly every 2 weeks for a total of three injections; the experiment was completed in 14 days after the third injection. Morbidity was monitored weekly, tumor size was measured weekly with vernier. Volume (length diameter×short diameter 2/2) of the tumor was used to represent their size, and curve of tumor growth was protracted,
Tumor weight was measured after completion of the experiment and tumor-inhibitory rate was calculated, inhibitory rate=[(tumor weight of control group−tumor weight of experiment groups)/tumor weight of control group]×100.

A further test relates to B2 and B3 antigen. As to the kind of experiment: Cross immunity of B2 and B3 antigen (ELISA antibody titer). The conditions noted are these: serum of immunized FVB transgenic mice, ELISA on wrapped B2 or B3 protein, 450 nm. The method, then: FVB transgenic mice were immuned with B2 protein and B3 protein respectively, 10 days thereafter, blood was withdrawn and antibody titer was tested with ELISA. 0.3 μg/hole of B2 and B3 was wrapped, 1:1000 B2 and B3 on each plate were titrated with standard serum respectively, cultured at 37° C. for 30 minutes, sealed with 1% BSA, added double antibody, color development for 15 minutes with DAD, tested with Bio-Rad 450 nm enzyme labeled device.

[6] abbreviates: ADR 2.2 mg/kg injected abdominally for consecutive 7 days.
Where [7] appears, read: 5 μg + Al(OH)3, subcutaneous every 2 weeks, 3 injections.
Where [8] appears, read: 20 μg + Al(OH)3, subcutaneous every 2 weeks, 3 injections.
The mark [9] stands for this setting: 80 μg + Al(OH)3, subcutaneous every 2 weeks, 3 injections.

In test [1] (setting [6]), `COc1cccc2c1C(=O)c1c(O)c3c(c(O)c1C2=O)C[C@@](O)(C(=O)CO)C[C@@H]3O[C@H]1C[C@H](N)[C@H](O)[C@H](C)O1` [ADR, Adriamycin, reference compound] had an Inhibitory rate of 25.3%, a Tumor size of 4603.1 ± 478.3 mm3 and a Tumor weight of 3.564 ± 0.42 g. In test [2] (2 mg/kg, ip X 7 qd), this molecule displayed an Inhibitory rate of 40.98% and a Tumor weight of 0.648 ± 0.27 g.

In test [3] (10 mg/kg, ip X 7 qd), `CC(=O)O[C@H]1C(=O)[C@@]2(C)[C@H]([C@H](OC(=O)c3ccccc3)[C@]3(O)C[C@H](OC(=O)[C@H](O)[C@@H](NC(=O)c4ccccc4)c4ccccc4)C(C)=C1C3(C)C)[C@]1(OC(C)=O)CO[C@@H]1C[C@@H]2O` [Taxol, reference compound] returned an Inhibitory rate of 44.32% and a Tumor weight of 3.09 ± 1.08 g.

Turning to “B3: protein of ErbB3 extra-cell membrane region (SEQ ID NO:2), flag-tagged, expressed by eucaryotic cells; anti-tumor vaccine”, in test [4] (5 μg/animal/dose + CFA), the “Incidence of tumor growth” value stood at 12.5%; the “Time of tumor occurrence” value is 22 weeks and 20 weeks. Further, the “Tumor-inhibitory effect against the development of tumor, incidence versus negative control group” value in test [4] is listed as “significant tumor-inhibitory effect”. Besides, the “Tumor-inhibitory effect (significance)” value in test [5] (t testing, P<0.01) is “significant tumor-inhibitory effect”. In addition, in test [5] (vaccine + Al(OH)3, every 2 weeks, three injections), the Inhibitory rate turned out to be 33%. The Tumor size in test [5] (vaccine + Al(OH)3, every 2 weeks, three injections, 5 weeks) is on record as 5271.8 ± 658.9 mm3. In addition, in test [5] (vaccine + Al(OH)3, every 2 weeks, three injections, at completion of experiment), the Tumor weight stood at 3.13 ± 0.33 g. Also, the “Cross immunity between B2 and B3 antigen” value with B2 and B3 antigen is recorded as “there isn't any cross immunity”.

B1: rhErbB3-f12: protein segment of ErbB3 extra-cell membrane region (SEQ ID NO:14) expressed by E. coli (protein, listed as Homo sapiens)
chain: MKYLLPTAAAGLLLLAAQPAMAMDIKHNRPRRDCVAEGKVCDPLCSSGGCWGPGPGQCLSCRNYSRGGVCVTHCNFLNGEPLEHHHHHH
As for B1, the Inhibitory rate was found to be 58.39% in test [3] (0.25 mg/kg, sc X 3 q14d); 52.61% in test [3] (0.5 mg/kg, sc X 3 q14d); 56.76% in test [3] (1 mg/kg, sc X 3 q14d). Besides, the Tumor weight in test [3] (0.25 mg/kg, sc X 3 q14d) amounted to 2.31 ± 0.40 g; in test [3] (0.5 mg/kg, sc X 3 q14d) it was 2.62 ± 0.67 g; in test [3] (1 mg/kg, sc X 3 q14d) it was 2.40 ± 0.49 g.

B2: DE3-1: extra-cell membrane ErbB3 protein segment (SEQ ID NO:3) expressed by E. coli, N end fused with Trx Tag, His Tag and S-Tag (protein, listed as Homo sapiens)
chain: MRANDALQVLGLLFSLARGSEVGNSQAVCPGTLNGLSVTGDAENQYQTLYKLYERCEVVMGNLEIVLTGHNADLSFLQWIREVTGYVLVAMNEFSTLPLPNLRVVRGTQVYDGKFAIFVMLNYNTNSSHALRQLRLTQLTEILSGGVYIEKNDKLCHMDTIDWRDIVRDRDAEIVVKDNGRSCPPCHEVC
modifications: N-terminal Trx, His, S tags
As to B2, in test [4] (10 μg/animal/dose + CFA), the “Incidence of tumor growth” value is on record as 35% and the “Time of tumor occurrence” value is recorded as 23 weeks. Also, the “Tumor-inhibitory effect against the development of tumor, incidence versus negative control group” value in test [4] is listed as “not significantly different”. Further, in test [1] (setting [7]), the Inhibitory rate is reported as 22.4%, the Tumor size was 5563.7 ± 600.6 mm3 and the Tumor weight worked out at 3.687 ± 0.45 g. For the same molecule, in test [1] (setting [8]), the Tumor size is reported as 4715.0 ± 434.8 mm3 and the Tumor weight is on record as 3.455 ± 0.41 g. Also, in test [1] (setting [9]), the Inhibitory rate was found to be 26.3%, the Tumor size was 4810.8 ± 460.5 mm3 and the Tumor weight came to 3.658 ± 0.37 g.

B3: rhErbB3-f78: ErbB3 extra-cell membrane protein segment (SEQ ID NO:16) expressed by E. coli (protein, listed as Homo sapiens)
chain: MVCVASCPHNFVVDQTSCVRACPPDKMEVDKNGLKMCEPCGGLCPKACEGTGSGSRFQTVDSSNIDGFVNCTKILGNLDFLITGLNGDPWHKIPALDPEKLNVFRTVREITGYLNIQSWPPHMHNFSVFSNLTTIGGRSKLAAALEHHHHHH
As for B3, in test [2] (2.5 mg/kg, sc X 3 q14d), the Inhibitory rate was determined as 60.38% and the Tumor weight is reported as 0.435 ± 0.12 g.
